Experimental data published in publication PMC314469, “Protein Interaction Networks by Proteome Peptide Scanning” (PLoS Biology, 2004).

T1: Boi1 SH3 (BOI1_YEAST), P38041
T1 chain: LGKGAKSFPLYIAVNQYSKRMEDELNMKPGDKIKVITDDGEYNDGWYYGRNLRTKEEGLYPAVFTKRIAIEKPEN

T2: Boi2 SH3 (BOI2_YEAST), P39969
T2 chain: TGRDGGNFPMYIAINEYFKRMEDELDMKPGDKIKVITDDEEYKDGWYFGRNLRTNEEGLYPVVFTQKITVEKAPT

T3: Myo5 SH3 (MYO5_YEAST), Q04439
T3 chain: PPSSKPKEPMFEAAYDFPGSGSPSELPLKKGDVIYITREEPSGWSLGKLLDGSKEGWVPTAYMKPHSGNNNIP

T4: Rvs167 SH3 (RV167_YEAST), P39743
T4 chain: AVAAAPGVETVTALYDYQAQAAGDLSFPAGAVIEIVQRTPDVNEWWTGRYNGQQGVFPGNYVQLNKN

T5: Yfr024 SH3 (LSB3_YEAST), P43603
T5 chain: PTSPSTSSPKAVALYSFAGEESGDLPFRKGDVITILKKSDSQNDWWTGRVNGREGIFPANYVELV

T6: Yhr016c SH3 (YSC84_YEAST), P32793
T6 chain: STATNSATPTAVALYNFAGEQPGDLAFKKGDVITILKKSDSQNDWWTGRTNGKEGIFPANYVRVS


Experiments:
Test in all cases: SPOT array
[1] = target: T1, Boi1 SH3 (BOI1_YEAST), P38041
[2] = target: T2, Boi2 SH3 (BOI2_YEAST), P39969
[3] = target: T3, Myo5 SH3 (MYO5_YEAST), Q04439
[4] = target: T4, Rvs167 SH3 (RV167_YEAST), P39743
[5] = target: Sho1 SH3 (SHO1_YEAST), P40073
[6] = target: T5, Yfr024 SH3 (LSB3_YEAST), P43603
[7] = target: T6, Yhr016c SH3 (YSC84_YEAST), P32793

Sho1 SH3 (SHO1_YEAST), P40073, sequence (P40073 295-366): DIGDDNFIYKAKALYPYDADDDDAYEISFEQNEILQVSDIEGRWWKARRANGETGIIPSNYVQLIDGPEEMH

Binder | normalised SPOT signal, Boehringer light units (BLU); mean over the file's lines of this peptide [1] | normalised SPOT signal, Boehringer light units (BLU); mean over the file's lines of this peptide [2] | normalised SPOT signal, Boehringer light units (BLU); mean over the file's lines of this peptide [3] | normalised SPOT signal, Boehringer light units (BLU); mean over the file's lines of this peptide [4] | normalised SPOT signal, Boehringer light units (BLU); mean over the file's lines of this peptide [5] | normalised SPOT signal, Boehringer light units (BLU); mean over the file's lines of this peptide [6] | normalised SPOT signal, Boehringer light units (BLU); mean over the file's lines of this peptide [7]
ALLRRTIPKRPFYH [YDL142C 12-25] | 4780 | 253 | 914 | 1850 | 34.4 | 7070 | 972
ALLIKTVPGFPLLE [YGR061C 138-151] | 78.5 | 48 | 144 | 11.8 | 22.1 | 39.7 | 7.6
AKINKVSPEDPWVL [YDL245C 273-286] | 117 | 12.9 | 121 | 39 | 23.6 | 14.9 | 12.2
AKTNKNVPVLPTPG [YDL195W 766-779] | 1420 | 70.7 | 130 | 136 | 91.3 | 97.7 | 30.3
AKLRKFHPPEPYKG [YHR147C 183-196] | 274 | 34.8 | 119 | 48.5 | 133 | 128 | 32.7
AKIDKVSPEDPWVL [YJR158W 273-286] | 54.6 | 15.6 | 248 | 16 | 25.7 | 33.6 | 13.1
AKDYRFNPAIPLRI [YLR073C 11-24] | 1420 | 30.5 | 304 | 534 | 208 | 1400 | 559
AGPRKYIPRAPAQG [YGL063W 287-300] | 1440 | 39.1 | 195 | 94.4 | 63 | 233 | 45.1
AKSNKVSPEDPAVQ [YLR081W 283-296] | 571 | 24.3 | 371 | 159 | 44.1 | 142 | 12.5
AKVNKSPPDHPYIQ [YHR094C 277-290] | 426 | 20.2 | 164 | 53 | 32.9 | 39.4 | 18.6

More lines, now with the values ahead:

normalised SPOT signal, Boehringer light units (BLU); mean over the file's lines of this peptide [1] | normalised SPOT signal, Boehringer light units (BLU); mean over the file's lines of this peptide [2] | normalised SPOT signal, Boehringer light units (BLU); mean over the file's lines of this peptide [3] | normalised SPOT signal, Boehringer light units (BLU); mean over the file's lines of this peptide [4] | normalised SPOT signal, Boehringer light units (BLU); mean over the file's lines of this peptide [5] | normalised SPOT signal, Boehringer light units (BLU); mean over the file's lines of this peptide [6] | normalised SPOT signal, Boehringer light units (BLU); mean over the file's lines of this peptide [7] | Binder
20.7 | 0 | 158 | 61.7 | 52.2 | 87.4 | 27.3 | AGMAKTKPDVPLSY [YLR216C 44-57]
948 | 13.4 | 108 | 56.3 | 33.3 | 4.1 | 63.6 | ALEERFDPKSPTKR [YMR129W 520-533]
33.8 | 30.4 | 101 | 102 | 23.3 | 98.8 | 15.9 | AGQERFAPLAPMYY [YNL093W 69-82]
382 | 4.6 | 502 | 34.5 | 109 | 162 | 42.3 | AKLHRTKPVKPLSK [YLR430W 1004-1017]
466 | 3.3 | 176 | 14.9 | 18.4 | 48.8 | 7 | AISKKLGPDTPIKV [YOR219C 612-625]
106 | 0 | 133 | 17.9 | 26.3 | 0 | 17.7 | AGLYKLSPLYPFDV [YLR291C 296-309]
